Earlier results, collected in PMC4258470.
pKd: −log10 of the molar value.

Tests used:
[1] = target: p53 N-terminal transactivation domain (Homo sapiens) (UniProt P04637)
[2] = target: HPV16 E7 CR1-CR2 (Human papillomavirus type 16) (UniProt P03129)
Sequence of HPV16 E7 CR1-CR2 (Human papillomavirus type 16) (P03129 1-40): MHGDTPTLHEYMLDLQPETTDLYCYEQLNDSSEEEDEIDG

Sequence of CBP TAZ2 (P45481 1766-1847): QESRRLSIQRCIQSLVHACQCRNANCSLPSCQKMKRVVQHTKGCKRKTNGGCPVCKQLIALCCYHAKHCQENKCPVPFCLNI
Sequence of p53 N-terminal transactivation domain (Homo sapiens) (P04637 1-61): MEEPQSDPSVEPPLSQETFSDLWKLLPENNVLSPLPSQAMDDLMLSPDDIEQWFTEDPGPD
Sequence of pRb (P06400 2-928): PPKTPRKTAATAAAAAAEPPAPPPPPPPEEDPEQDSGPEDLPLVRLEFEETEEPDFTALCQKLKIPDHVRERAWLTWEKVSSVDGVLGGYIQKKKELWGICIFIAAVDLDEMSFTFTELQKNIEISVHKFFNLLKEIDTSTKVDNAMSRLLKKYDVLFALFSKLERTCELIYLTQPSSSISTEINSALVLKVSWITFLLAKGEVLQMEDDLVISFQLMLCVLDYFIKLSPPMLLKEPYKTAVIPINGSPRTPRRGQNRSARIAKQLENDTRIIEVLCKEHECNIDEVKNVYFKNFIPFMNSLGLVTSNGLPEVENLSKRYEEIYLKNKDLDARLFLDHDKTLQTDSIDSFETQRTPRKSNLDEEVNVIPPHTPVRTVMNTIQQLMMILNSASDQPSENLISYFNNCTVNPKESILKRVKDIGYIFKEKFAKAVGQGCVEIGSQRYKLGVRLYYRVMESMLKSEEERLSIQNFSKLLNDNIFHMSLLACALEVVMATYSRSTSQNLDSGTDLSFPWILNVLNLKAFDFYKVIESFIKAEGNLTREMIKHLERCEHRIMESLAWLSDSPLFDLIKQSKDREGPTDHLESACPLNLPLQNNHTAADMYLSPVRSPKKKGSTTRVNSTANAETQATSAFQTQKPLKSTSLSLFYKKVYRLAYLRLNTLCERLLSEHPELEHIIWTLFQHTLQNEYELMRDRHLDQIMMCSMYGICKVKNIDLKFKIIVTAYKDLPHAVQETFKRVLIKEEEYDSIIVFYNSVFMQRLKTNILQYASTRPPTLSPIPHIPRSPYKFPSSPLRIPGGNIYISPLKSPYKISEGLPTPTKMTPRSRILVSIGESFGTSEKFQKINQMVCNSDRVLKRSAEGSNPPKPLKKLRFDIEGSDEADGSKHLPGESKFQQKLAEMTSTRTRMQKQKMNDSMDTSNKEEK

| Substance | pKd [1] | pKd [2] |
| --- | --- | --- |
| CBP TAZ2 (from UniProt P45481) | 7.70 |  |
| pRb (from UniProt P06400) |  | 8.70 |
